Reference: patent publication US20090304588A1

Target: T1, Hyperpolarization-activated cyclic-nucleotide-gated (HCN) ion channel 1 (HCN1)
T1 sequence (O60741 1-890, species assumed, looked up): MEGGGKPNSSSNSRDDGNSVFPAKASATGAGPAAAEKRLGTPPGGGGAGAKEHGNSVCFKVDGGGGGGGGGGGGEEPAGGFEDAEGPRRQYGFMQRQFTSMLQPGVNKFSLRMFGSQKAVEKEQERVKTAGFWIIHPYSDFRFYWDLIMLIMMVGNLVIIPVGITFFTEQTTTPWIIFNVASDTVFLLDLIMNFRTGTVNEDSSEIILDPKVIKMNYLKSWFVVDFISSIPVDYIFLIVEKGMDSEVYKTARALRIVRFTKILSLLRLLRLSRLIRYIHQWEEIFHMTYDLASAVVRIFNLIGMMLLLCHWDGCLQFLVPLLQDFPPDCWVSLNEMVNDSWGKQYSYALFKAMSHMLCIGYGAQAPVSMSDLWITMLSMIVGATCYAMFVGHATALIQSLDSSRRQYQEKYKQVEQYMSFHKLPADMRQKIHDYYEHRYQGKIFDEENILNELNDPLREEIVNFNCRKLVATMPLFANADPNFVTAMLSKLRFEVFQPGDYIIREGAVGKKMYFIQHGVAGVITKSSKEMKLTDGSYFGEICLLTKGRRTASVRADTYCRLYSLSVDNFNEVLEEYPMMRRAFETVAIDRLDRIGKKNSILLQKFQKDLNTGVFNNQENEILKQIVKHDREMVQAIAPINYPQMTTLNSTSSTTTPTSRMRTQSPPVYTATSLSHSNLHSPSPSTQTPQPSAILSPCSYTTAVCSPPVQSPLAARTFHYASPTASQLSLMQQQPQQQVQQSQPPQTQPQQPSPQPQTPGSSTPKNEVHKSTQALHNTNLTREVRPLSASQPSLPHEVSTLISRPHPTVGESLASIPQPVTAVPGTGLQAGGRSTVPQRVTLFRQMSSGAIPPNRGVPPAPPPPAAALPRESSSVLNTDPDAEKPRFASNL
Experiment: cell-based or functional assay

## S4TKv1.4GYS (human Kv1.4 with S4 triple mutation R447N, L448A, R453I and pore mutation G528S) (from UniProt P22459 1-653)
  reversal potential of HCN co-transfected with SPC: -22 mV
  reversal potential of the current left after superfusion with Cs to block HCN1 homomultimers: -11.1 mV
